Assays:
[1] = biological target: the molecule itself; test: circular dichroism, concentration series; monomer to dimer; CD signal at 222 nm at varying protein concentrations, 20 °C, 20 mM potassium phosphate pH 8.0, 150 mM NaF, fitted with a two-state association model
[2] = biological target: the molecule itself; test: high-speed atomic force microscopy (PORT-HS-AFM); homodimer with homodimer (and higher oligomers, rings) adsorbed on a mica surface; 20 mM Tris-HCl, 150 mM KCl, pH 7.4, 6-10 °C; ~120 nM in solution (~14 nM pre-incubated on mica for ring opening and closing); effective surface constants, Kd from a fit of a coagulation-fragmentation model

B1: Chlamydomonas reinhardtii SAS-6[NL] (CrSAS-6[NL], amino acids 1-503) (domain or fragment, UniProt A9CQL4 1-503, looked up)
chain: MPLLLDDGDPKAQTGFDLSTATTLFWRPVPVHVKQQDREDVLEELTFRILTGVAKQNHNLRILRIHISSDSDLFFLHTLEVSEEDFQSLKNDQGILVDFASFPGKIISLLEKCILAQPGDSPRFQAVLTIRGGESVFKIVEINDFKQLPHITLAFRPGNDSVVKQFLAFRLSEVKGTCHDLSDDLSRTRDDRDSMVAQLAQCRQQLAQLREQYDKHLLEVQAQAKTQQASAHEERIREKSQLKDQFEKERGEMEGRYRDQIAALNTRLGELDTENRKLREVKYELDTKVSELSHKLGSSEGSNRSLEEETARLRSLNQQLSSSKHELEIQLNEAKAKVLALDEKAQSQGDVIEQQRGRLRDMEAALRQTEQRCADLRDTLASAEGRAKEAQAEVLKGNQAIEKLTNDLRLAKEKTKRKAAIILRQEEELQEREQSLANATRDVGVLGQQAESLRKDVASLHSENDSLRSKLEDSKQQLQSNEQMIRWLNQQVTEAQLHASGAT
notes: SAS-6 of Chlamydomonas reinhardtii, amino acids 1-503: globular N-terminal head domain and the coiled-coil (spokes), without the unstructured C-terminal moiety; Forms a homodimer through its coiled coil (monomer-dimer Kd measured here); source: E. coli BL21(DE3), purified (HisTrap Ni2+-Sepharose, PreScission cleavage, reverse HisTrap, SEC Superdex 200)
[1]
  Kd: ~20 nM
[2]
  stoichiometry N: 7 to 10 homodimers
